Results: the supplement of paper PMC9112550, “Optimization of the antimicrobial peptide Bac7 by deep mutational scanning” (BMC Biology, 2022)

Tested on: Escherichia coli TOP10
Experiment: shrunken log2 fold change of peptide-encoding DNA abundance (4.5 h post-induction vs induction); higher = less antimicrobial activity (less host growth inhibition)
Conditions: time post-induction: 4.5 h; library: site-saturation at positions 5, 18, 19, 20
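Further: peptides expressed intracellularly from a pBAD plasmid library in pooled LB shake-flask culture, induced with 0.3% L-arabinose, DNA abundance read by NGS, three biological replicates, DESeq2 with apeglm shrinkage.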

Sequence	shrunken log2 fold change
RRIRTRPPRLPRPRPRPAVCPRP	0.712
RRIRTRPPRLPRPRPRPAVFPRP	0.271
RRIRTRPPRLPRPRPRPAVQPRP	0.0481
RRIRTRPPRLPRPRPRPAVTPRP	0.102
RRIRTRPPRLPRPRPRPAWWPRP	0.615
RRIRTRPPRLPRPRPRPAYAPRP	0.0376
RRIRTRPPRLPRPRPRPAYQPRP	-0.0436
RRIRTRPPRLPRPRPRPCAKPRP	0.423
RRIRTRPPRLPRPRPRPCDNPRP	-0.267
RRIRTRPPRLPRPRPRPCERPRP	-0.018
RRIRTRPPRLPRPRPRPCFFPRP	-0.202
RRIRTRPPRLPRPRPRPCFIPRP	-1.05
RRIRTRPPRLPRPRPRPCGRPRP	0.155
RRIRTRPPRLPRPRPRPCIPPRP	-1.3
RRIRTRPPRLPRPRPRPCKCPRP	-1.16
RRIRTRPPRLPRPRPRPCKKPRP	-0.0502
RRIRTRPPRLPRPRPRPCLLPRP	-0.413
RRIRTRPPRLPRPRPRPCLRPRP	0.0877
RRIRTRPPRLPRPRPRPCMAPRP	-0.172
RRIRTRPPRLPRPRPRPCNNPRP	-0.276
RRIRTRPPRLPRPRPRPCNTPRP	-0.21
RRIRTRPPRLPRPRPRPCSAPRP	-0.413
RRIRTRPPRLPRPRPRPCSMPRP	-0.179
RRIRTRPPRLPRPRPRPCSYPRP	-0.129
RRIRTRPPRLPRPRPRPCTEPRP	-0.237

Sequence	shrunken log2 fold change
RRIRTRPPRLPRPRPRPCTTPRP	-0.0816
RRIRTRPPRLPRPRPRPCWIPRP	-0.1
RRIRTRPPRLPRPRPRPCYEPRP	-0.549
RRIRTRPPRLPRPRPRPCYHPRP	-0.637
RRIRTRPPRLPRPRPRPDAEPRP	0.117
RRIRTRPPRLPRPRPRPDCPPRP	-0.245
RRIRTRPPRLPRPRPRPDETPRP	0.0482
RRIRTRPPRLPRPRPRPDFQPRP	0.00444
RRIRTRPPRLPRPRPRPDGPPRP	0.126
RRIRTRPPRLPRPRPRPDHCPRP	-0.116
RRIRTRPPRLPRPRPRPDHSPRP	-0.0596
RRIRTRPPRLPRPRPRPDIMPRP	-0.624
RRIRTRPPRLPRPRPRPDMHPRP	-0.249
RRIRTRPPRLPRPRPRPDMKPRP	-0.0377
RRIRTRPPRLPRPRPRPDMLPRP	0.035
RRIRTRPPRLPRPRPRPDPEPRP	0.155
RRIRTRPPRLPRPRPRPDRFPRP	0.0382
RRIRTRPPRLPRPRPRPDRYPRP	0.04
RRIRTRPPRLPRPRPRPDSSPRP	-0.00751
RRIRTRPPRLPRPRPRPDVSPRP	-0.223
RRIRTRPPRLPRPRPRPDWLPRP	0.514
RRIRTRPPRLPRPRPRPDWQPRP	-0.0206
RRIRTRPPRLPRPRPRPDWTPRP	-0.179
RRIRTRPPRLPRPRPRPDWVPRP	0.0189
RRIRTRPPRLPRPRPRPDYYPRP	-0.356

Sequence	shrunken log2 fold change
RRIRTRPPRLPRPRPRPEANPRP	-0.0399
RRIRTRPPRLPRPRPRPEAVPRP	-0.0221
RRIRTRPPRLPRPRPRPECAPRP	0.459
RRIRTRPPRLPRPRPRPECEPRP	0.154
RRIRTRPPRLPRPRPRPECGPRP	0.51
RRIRTRPPRLPRPRPRPECTPRP	0.0491
RRIRTRPPRLPRPRPRPEEMPRP	0.133
RRIRTRPPRLPRPRPRPEFIPRP	0.0102
RRIRTRPPRLPRPRPRPEINPRP	-0.106
RRIRTRPPRLPRPRPRPELMPRP	0.0498
RRIRTRPPRLPRPRPRPEPWPRP	0.291
RRIRTRPPRLPRPRPRPERFPRP	0.0107
RRIRTRPPRLPRPRPRPERSPRP	0.104
RRIRTRPPRLPRPRPRPESKPRP	0.214
RRIRTRPPRLPRPRPRPEVHPRP	0.00869
RRIRTRPPRLPRPRPRPEWTPRP	0.188
RRIRTRPPRLPRPRPRPEYFPRP	-0.186
RRIRTRPPRLPRPRPRPFCRPRP	-0.0976
RRIRTRPPRLPRPRPRPFGMPRP	0.00903
RRIRTRPPRLPRPRPRPFGYPRP	0.0679
RRIRTRPPRLPRPRPRPFHHPRP	-0.775
RRIRTRPPRLPRPRPRPFHIPRP	0.0392
RRIRTRPPRLPRPRPRPFHYPRP	-0.0376
RRIRTRPPRLPRPRPRPFKFPRP	-0.0637
RRIRTRPPRLPRPRPRPFLSPRP	-0.195

Sequence	shrunken log2 fold change
RRIRTRPPRLPRPRPRPFMLPRP	-0.706
RRIRTRPPRLPRPRPRPFPIPRP	-1.16
RRIRTRPPRLPRPRPRPFPSPRP	0.0745
RRIRTRPPRLPRPRPRPFQGPRP	-0.00192
RRIRTRPPRLPRPRPRPFQSPRP	0.00942
RRIRTRPPRLPRPRPRPFQWPRP	-0.0875
RRIRTRPPRLPRPRPRPFRMPRP	0.0244
RRIRTRPPRLPRPRPRPFSFPRP	-0.341
RRIRTRPPRLPRPRPRPFSIPRP	-0.284
RRIRTRPPRLPRPRPRPFSMPRP	-0.0868
RRIRTRPPRLPRPRPRPFSRPRP	0.0136
RRIRTRPPRLPRPRPRPFSWPRP	-0.294
RRIRTRPPRLPRPRPRPFVQPRP	-0.177
RRIRTRPPRLPRPRPRPFVRPRP	-1.25
RRIRTRPPRLPRPRPRPFYAPRP	-0.301
RRIRTRPPRLPRPRPRPFYNPRP	-0.755
RRIRTRPPRLPRPRPRPGAFPRP	2.41
RRIRTRPPRLPRPRPRPGAHPRP	0.0457
RRIRTRPPRLPRPRPRPGARPRP	0.212
RRIRTRPPRLPRPRPRPGCDPRP	0.256
RRIRTRPPRLPRPRPRPGCKPRP	-0.161
RRIRTRPPRLPRPRPRPGDGPRP	0.393
RRIRTRPPRLPRPRPRPGDTPRP	-0.0833
RRIRTRPPRLPRPRPRPGEDPRP	0.109
RRIRTRPPRLPRPRPRPGEWPRP	0.0179

Sequence	shrunken log2 fold change
RRIRTRPPRLPRPRPRPGFKPRP	-0.0634
RRIRTRPPRLPRPRPRPGFNPRP	-0.234
RRIRTRPPRLPRPRPRPGFTPRP	-0.0298
RRIRTRPPRLPRPRPRPGHNPRP	-0.184
RRIRTRPPRLPRPRPRPGIDPRP	-0.0352
RRIRTRPPRLPRPRPRPGILPRP	-0.0375
RRIRTRPPRLPRPRPRPGKVPRP	0.145
RRIRTRPPRLPRPRPRPGLAPRP	0.308
RRIRTRPPRLPRPRPRPGLLPRP	0.0639
RRIRTRPPRLPRPRPRPGLSPRP	0.0345
RRIRTRPPRLPRPRPRPGNNPRP	-0.14
RRIRTRPPRLPRPRPRPGPQPRP	0.0198
RRIRTRPPRLPRPRPRPGPYPRP	-0.159
RRIRTRPPRLPRPRPRPGQRPRP	0.118
RRIRTRPPRLPRPRPRPGSYPRP	-0.0475
RRIRTRPPRLPRPRPRPGTMPRP	-0.254
RRIRTRPPRLPRPRPRPGTNPRP	-0.0901
RRIRTRPPRLPRPRPRPGTPPRP	0.0833
RRIRTRPPRLPRPRPRPGVFPRP	-0.0409
RRIRTRPPRLPRPRPRPGWGPRP	0.343
RRIRTRPPRLPRPRPRPGWMPRP	-0.182
RRIRTRPPRLPRPRPRPGWTPRP	0.24
RRIRTRPPRLPRPRPRPGWYPRP	-0.23
RRIRTRPPRLPRPRPRPGYDPRP	-0.697
RRIRTRPPRLPRPRPRPGYIPRP	-0.288

Sequence	shrunken log2 fold change
RRIRTRPPRLPRPRPRPGYKPRP	-0.275
RRIRTRPPRLPRPRPRPHAGPRP	-0.0835
RRIRTRPPRLPRPRPRPHCEPRP	0.023
RRIRTRPPRLPRPRPRPHCGPRP	-0.0402
RRIRTRPPRLPRPRPRPHCKPRP	-0.222
RRIRTRPPRLPRPRPRPHCMPRP	-0.153
RRIRTRPPRLPRPRPRPHCPPRP	-0.605
RRIRTRPPRLPRPRPRPHCRPRP	-0.0822
RRIRTRPPRLPRPRPRPHDVPRP	0.00489
RRIRTRPPRLPRPRPRPHEDPRP	-0.183
RRIRTRPPRLPRPRPRPHFSPRP	0.0329
RRIRTRPPRLPRPRPRPHFTPRP	-0.149
RRIRTRPPRLPRPRPRPHGNPRP	-0.718
RRIRTRPPRLPRPRPRPHGVPRP	-0.00162
RRIRTRPPRLPRPRPRPHGWPRP	-0.0327
RRIRTRPPRLPRPRPRPHIGPRP	-0.156
RRIRTRPPRLPRPRPRPHIIPRP	-0.0938
RRIRTRPPRLPRPRPRPHILPRP	-0.00363
RRIRTRPPRLPRPRPRPHIQPRP	-0.0986
RRIRTRPPRLPRPRPRPHKIPRP	-0.587
RRIRTRPPRLPRPRPRPHKPPRP	-0.0565
RRIRTRPPRLPRPRPRPHKWPRP	-0.029
RRIRTRPPRLPRPRPRPHLVPRP	0.0214
RRIRTRPPRLPRPRPRPHMFPRP	-0.0142
RRIRTRPPRLPRPRPRPHMLPRP	-0.389
